The target of assay [1] is T1, NAC portion of α-synuclein (approx. amino acids 61-87) (human, UniProt P37840 61-87).
T1 construct: range 61-87; also called α-synuclein 61-87 peptide
The experiment in a line: phage display selection.

Assay [2] deals with T1, NAC portion of α-synuclein (approx. …). The experiment in a line: phage display selection with the α-synuclein 121-131 and 61-87 peptides as the bait.
For assay [3], the target named is α-synuclein (recombinant, wildtype) (human, UniProt P37840 1-140). The experiment in a line: cell-based or functional assay.

Ends that are not written are not given here.

B1: THIHHPS (peptide)
peptide: THIHHPS
notes: 7-mer from phage display
With B1, in assay [1], the binding result is reported as “binds”.

B2: WPFHHHR (peptide)
peptide: WPFHHHR
notes: 7-mer from phage display
Regarding B2, the binding result in assay [1] is given as “binds”.

B3: RLRGRNQ (peptide)
peptide: RLRGRNQ
notes: 7-mer from phage display
Consider B3, for which the binding result in assay [1] is on record as “binds”.

B4: HLYHHKT (peptide)
peptide: HLYHHKT
notes: 7-mer from phage display
Consider B4, for which the binding result in assay [1] is “binds”.

B5: phage containing the SLKRLPK (SEQ ID NO: 7) peptide (peptide)
chain: SLKRLPK
modifications: also: displayed on phage coat protein
notes: also called SLKRLPK phage; not shown: phage coat protein that carries the 7-mer (New England Biolabs phage display kit); neither the protein nor any linker is
With B5, the binding result in assay [2] is “binds”.

B6: SLKRLPK (peptide)
peptide: SLKRLPK
notes: also called the peptide
B6: in assay [1], the binding result is recorded as “binds”. Besides, the “inhibition of iron-induced α-synuclein aggregation in vitro, densitometric quantification, 10-fold excess of the peptide” value in assay [3] was 38%.

(Values after patent US7605133 (PANACEA PHARMACEUTICALS, dated 2009).)
